Patent US5747334
No end group written: not given here.

How the values were obtained:
[1] = molecular target: 7E11-C5 monoclonal antibody; experiment: competitive ELISA, LNCaP extract on plate
[2] = molecular target: 7E11-C5 monoclonal antibody; experiment: competitive ELISA, peptide 1.75-1130 nM pre-incubated with 7E11-C5 at 30 ng/ml (0.2 nM), LNCaP extract on plate

- molar ratio of peptide to monovalent binding site on the antibody at the IC50 [1]: 400
- IC50 [2]: 160 nM
Binder: LYANPGMYSRLHSPA-NH2 [peptide SEQ ID NO 31 (amide form)]
